From patent US20250270301A1 (GEN2 NEUROSCIENCE, published 2025)
Like-named read-outs stand apart in the source and are kept apart here.

Key:
[1] = molecular target: monomeric P301S 2N4R tau, pHrodo-labelled (human, UniProt P10636 1-758, pHrodo Red maleimide label); assay: cell-based or functional assay
[2] = molecular target: aggregated (oligomeric) P301S 2N4R tau, pHrodo-labelled (human, UniProt P10636 1-758, pHrodo Red maleimide label); assay: cell-based or functional assay
[3] = molecular target: T1, full length recombinant human 2N4R tau (human, UniProt P10636 1-758); assay: SPR SCK, IgG on Protein A, tau in flow
T1 construct: bought from rPeptide; pHrodo Red maleimide-labelled where it stands in uptake assays; also called tau1-441; full length tau

[4] = molecular target: T1, full length recombinant human 2N4R tau; assay: SPR MCK, IgG on Protein A, tau in flow at 100 µL/min
Bovine serum albumin [5] = molecular target: T2, Bovine serum albumin (bovine, UniProt P02769 25-607); assay: ELISA on 1% BSA, HEK supernatant, anti-human IgG-HRP, n=1
T2 construct: also called BSA

[6] = molecular target: T1, full length recombinant human 2N4R tau; assay: SPR MCK, IgG on Protein A, tau in flow at 100 µL/min; on the border of mass transport limitation
Bovine serum albumin [7] = molecular target: T2, Bovine serum albumin; assay: ELISA on 1% BSA, HEK supernatant, anti-human IgG-HRP, n=1; remark: listed apart in the source
Outline: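 Wells coated with antigen, blocked 1 h RT in 5% milk/TBS; HEK293 transient-transfection supernatants applied at 1:100 in 1% BSA/TBS for 1 h RT. Bound hIgG1 detected with anti-human IgG-HRP (1:2000), TMB 15 min, acid stop, OD450; single replicate.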

[8] = molecular target: T1, full length recombinant human 2N4R tau; assay: ELISA on 2N4R tau (100 ng/well), HEK supernatant, anti-human IgG-HRP, n=1
Method: FIG. 7. A panel of humanised anti-tau IgG bind to full length recombinant 2N4R tau in an ELISA format. Supernatants from HEK cells transiently transfected with each IgG clone were tested at 1:100 for binding to full length recombinant 2N4R tau (solid bars). […] Binding of anti-tau hIgG1 was detected using an HRP-conjugated anti-human secondary antibody and data are shown from a representative experiment (n=1 replicate).
(§1) Antigen was removed from wells and the plates were then blocked for 1 hour at RT with 5% dried milk in 1×TBS. Blocking solution was removed, HEK293 cell supernatant (1:100 in 1% BSA/1×TBS) was added to relevant wells, and plates were incubated for 1 hour at RT with gentle shaking. Plates were then washed four times with TBS/0.1% Tween (TBST). Goat anti-human IgG-HRP antibody (Thermo Fisher Scientific, Waltham, MA, USA), diluted 1:2000 in 5% milk/TBS, was added to each well and plates were incubated for 1 hour at RT with gentle shaking before being washed four times with TBST. 3,3′,5,5′-tetramethylbenzidine (TMB) ELISA solution was added to each well and plates were incubated for 15 mins at RT. An equal volume of 1 M sulfuric acid was added to each well and OD was measured at 450 nm.

[9] = molecular target: T1, full length recombinant human 2N4R tau; assay: ELISA, tau coated on the plate
Method: as §1, with “ELISA plates were coated with antigen (non-conjugated antigen peptide (Antigen peptide ([C]-[…]-amide (SEQ ID NO: 13)) or full length 2N4R tau (SEQ ID NO: 2), 100 ng/well; or 1% BSA in 1×TBS) in 1× carbonate-bicarbonate buffer for 1 hour at 37° C. Antigen” for “Antigen”, “HEK293F” for “HEK293”, “(10 μg/mL, to 0.0001 μg/mL” for “(1:100”, “Anti-rabbit” for “Goat anti-human”, “(Sigma, St Louis, MO,” for “(Thermo Fisher Scientific, Waltham, MA,”, “1:5000” for “1:2000”

[10] = molecular target: T1, full length recombinant human 2N4R tau; assay: SPR MCK, IgG on Protein A, tau in flow
Method: Anti-tau IgGs bind to full length 2N4R tau (SEQ ID NO: 2) with high affinity. […] It is predicted that the binding affinity of these antibodies would be equivalent to any tau species containing the epitope corresponding to amino acids 369-381 of 2N4R tau (SEQ ID NO: 1), if this sequence is accessible.
19.2 Assessment of antibody binding to tau: Binding of anti-tau hIgG1 to full length recombinant 2N4R tau (Rpeptide; SEQ ID NO: 2) was assessed using the Biacore T200 (GE Healthcare, Chicago, IL, USA) running Biacore T200 Evaluation Software V2.0.1. hIgG1 were immobilised on a Protein A capture sensor chip in running buffer (HBS-EP+ buffer containing 1 mg/mL BSA) at 25° C., captured to ˜50 RU at 10 μL/min. For multi-cycle kinetics experiments (clone #66), recombinant 2N4R tau was flowed at concentrations ranging from 0.39 nM to 50 nM in running buffer at 40 μL/min, with an association time of 150 s and a dissociation time of 250 s. Optimised conditions for multiple-cycle kinetics experiments were applied to clone #44: recombinant 2N4R tau was flowed at concentrations ranging from 0.39 nM to 12.5 nM (2-fold dilutions) with an association time of 60 s and a dissociation time of 200 s (cropped to 65 s to improve analysis fit). Curves were compared to a reference cell that was mock immobilized (no antibody present).

[11] = molecular target: T1, full length recombinant human 2N4R tau; assay: SPR SCK, IgG on Protein A, tau in flow; remark: listed apart in the source
Outline: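 Antibodies were captured to ~50 RU on a Protein A chip in HBS-EP+ with 1 mg/mL BSA at 25 °C. Tau was injected by single-cycle kinetics at 1.25–10 nM (2-fold), with 60 s association and 200 s dissociation. Signals were referenced to a mock-immobilized cell.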

[12] = molecular target: T1, full length recombinant human 2N4R tau; assay: SPR MCK, IgG on Protein A, tau in flow; remark: listed apart in the source

Chain of monomeric P301S 2N4R tau, pHrodo-labelled (P10636 other isoform, or with tags, fused parts or gaps P301S P301S): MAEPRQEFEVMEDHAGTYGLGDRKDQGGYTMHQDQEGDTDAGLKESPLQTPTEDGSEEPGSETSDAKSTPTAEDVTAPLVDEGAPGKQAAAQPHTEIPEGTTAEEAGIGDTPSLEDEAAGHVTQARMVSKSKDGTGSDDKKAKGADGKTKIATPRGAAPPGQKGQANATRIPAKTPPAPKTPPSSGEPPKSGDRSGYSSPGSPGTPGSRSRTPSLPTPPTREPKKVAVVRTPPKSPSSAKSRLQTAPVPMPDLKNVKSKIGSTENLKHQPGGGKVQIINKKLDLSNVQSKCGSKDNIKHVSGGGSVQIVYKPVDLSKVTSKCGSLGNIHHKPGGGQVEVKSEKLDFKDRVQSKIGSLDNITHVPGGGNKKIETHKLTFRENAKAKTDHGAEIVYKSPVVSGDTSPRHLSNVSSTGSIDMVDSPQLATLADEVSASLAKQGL
Chain of aggregated (oligomeric) P301S 2N4R tau, pHrodo-labelled (P10636 other isoform, or with tags, fused parts or gaps P301S P301S): as above
T2 sequence (P02769 25-607 limits assumed): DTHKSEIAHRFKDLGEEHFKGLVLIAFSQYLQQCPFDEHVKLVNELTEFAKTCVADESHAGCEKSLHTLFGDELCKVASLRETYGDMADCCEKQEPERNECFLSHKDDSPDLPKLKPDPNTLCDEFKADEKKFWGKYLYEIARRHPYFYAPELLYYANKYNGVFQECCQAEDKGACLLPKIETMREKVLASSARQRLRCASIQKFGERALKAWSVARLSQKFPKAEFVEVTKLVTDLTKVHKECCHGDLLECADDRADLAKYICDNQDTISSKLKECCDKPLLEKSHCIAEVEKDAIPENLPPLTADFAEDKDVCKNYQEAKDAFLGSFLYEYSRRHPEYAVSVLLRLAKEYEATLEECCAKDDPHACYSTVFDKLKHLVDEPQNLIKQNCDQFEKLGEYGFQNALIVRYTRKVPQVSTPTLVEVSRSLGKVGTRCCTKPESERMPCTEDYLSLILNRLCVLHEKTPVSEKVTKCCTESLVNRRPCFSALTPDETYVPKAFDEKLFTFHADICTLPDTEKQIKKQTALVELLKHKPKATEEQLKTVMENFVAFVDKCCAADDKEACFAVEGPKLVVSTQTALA
T1 sequence (P10636 other isoform, or with tags, fused parts or gaps limits assumed): as the sequence (P10636 other isoform, or with tags, fused parts or gaps P301S P301S) above, with S301P counted along it

B1: #44_VH4VK4_H04/pVL (antibody, V domains shown)
VH: QVQLQESGPGLVKPSETLSLTCTVSGIDLSSYAMAWVRQAPGKGLEWIGCIDRRGGTFYASWVKGRFTISKDTSKTTVDLQMTSLTAEDTATYFCARDAGSFHPWGQGTLVTVSS
VL: DIQMTQSPSSLSASVGDRVTITCQASQSVYDNYLAWYQQKPGQPPKLLIHAASNLASGVPSRFSGSGSGTEFTLTISSLQPDDFATYYCLGEFSCTTTDCNVFGGGTKVEIK
notes: also called VH04/pVL; Clone VH4_H04
For B1, the “inhibition of monomeric tau uptake into human astrocytes” value [1] was 35.6%, the “inhibition of monomeric tau uptake into human iPSC-derived neurons” value [1] was 81.8% and the “inhibition of aggregated tau uptake into human astrocytes” value [2] was 32.6%. The “inhibition of aggregated tau uptake into human iPSC-derived neurons” value [2] was 65.5%, the “Fold change (KD, to pVH/pVL)” value [3] was 11.1 and the Kd [3] was 0.593 nM. The koff [3] was 0.0017 s⁻¹, the kon [3] was 2.86e+06 M⁻¹ s⁻¹ and the “Fold improvement (KD, to pVH/pVL)” value [4] was 10.5. For the same binder, the koff [4] was 0.00185 s⁻¹, the kon [4] was 2.51e+06 M⁻¹ s⁻¹ and the binding result (Bovine serum albumin [5]) was “no binding (tested: 30 ng/ml (legend 1:100))”. The Kd [6] was 0.736 nM.

B2: #44 VH6VK1 humanised hIgG1 (antibody, V domains shown)
VH: QVQLQESGPGLVKPSETLSLTCTVSGIDLSSYAMSWVRQAPGKGLEWVSCIDRRGGTFYASWVKGRFTISRDNSKNTLDLQMTSLTAEDTATYYCARDSGAFDPWGQGTLVTVSS
VL: QIVMTQSPSSLSASVGDRVTITCQASQSVYDNYLAWYQQKPGQPPKLLIHAASNLASRVPSRFKGSGSGTEFTLTISSLQCDDFATYYCLGEFSCTTTDCNVFGGGTEVVIK
notes: also called VH6Vκ1
B2: no binding (tested: supernatant 1:100) (Bovine serum albumin [7]); no binding (tested: supernatant 1:100) [8].

B3: #44_VH4VK4_H06/pVL (antibody, V domains shown)
VH: QVQLQESGPGLVKPSETLSLTCTVSGIDLSSYAMAWVRQAPGKGLEWIGVIDAAGHTFYASWVKGRFTISKDTSKTTVDLQMTSLTAEDTATYFCARDSGTFDPWGQGTLVTVSS
VL: DIQMTQSPSSLSASVGDRVTITCQASQSVYDNYLAWYQQKPGQPPKLLIHAASNLASGVPSRFSGSGSGTEFTLTISSLQPDDFATYYCLGEFSCTTTDCNVFGGGTKVEIK
notes: also called Clone VH4_H06; #44_VH4_H06
In the case of B3, the “inhibition of monomeric tau uptake into human astrocytes” value [1] is reported as 35.1%, the “inhibition of monomeric tau uptake into human iPSC-derived neurons” value [1] is reported as 71% and the “inhibition of aggregated tau uptake into human astrocytes” value [2] is reported as 39.1%. The “inhibition of aggregated tau uptake into human iPSC-derived neurons” value [2] was 55%, the “Fold change (KD, to pVH/pVL)” value [3] was 5.77 and the Kd [3] was 1.14 nM. The koff [3] was 0.00444 s⁻¹, the kon [3] was 3.9e+06 M⁻¹ s⁻¹ and the “Fold improvement (KD, to pVH/pVL)” value [4] was 5. For the same binder, the koff [4] was 0.00524 s⁻¹, the kon [4] was 3.43e+06 M⁻¹ s⁻¹ and the binding result (Bovine serum albumin [5]) was “no binding (tested: 30 ng/ml (legend 1:100))”. It also gave a Kd [6] of 1.53 nM.

B4: Clone 1 (#66) rabbit monoclonal IgG (antibody, V domains shown)
VH: QSVEESGGRLVTPGTPLTLTCTVSGIDLSSNAMIWVRQAPGKGLEYIGNIGTHGTTYYASWAKGRFTISKTSTTVDLKMTSPTTEDTATYFCSRGDIWGPGTLVTVSL
VL: AQVLTQTESPVSAPLRGTVTINCQASQSVDDNNNLAWYQQKPGQPPKLLIYEASTLASGVSSRFKGSGSGTQFTLTISDVQCDDAATYYCLGEFSCSSADCVVFGGGTEVVVKG
notes: rabbit IgG; also called clone #66; B9
Work on B4 yielded an EC50 [9] of 0.82 nM.

B5: Clone #66 (Clone 1) chimeric human IgG1 (antibody, V domains shown)
VH: QSVEESGGRLVTPGTPLTLTCTVSGIDLSSNAMIWVRQAPGKGLEYIGNIGTHGTTYYASWAKGRFTISKTSTTVDLKMTSPTTEDTATYFCSRGDIWGPGTLVTVSL
VL: AQVLTQTESPVSAPLRGTVTINCQASQSVDDNNNLAWYQQKPGQPPKLLIYEASTLASGVSSRFKGSGSGTQFTLTISDVQCDDAATYYCLGEFSCSSADCVVFGGGTEVVVKG
notes: rabbit VH and VK on human IgG1; also called #66 hIgG1
Binder B5 has a Kd [10] of 2.39 nM, a koff [10] of 0.00478 s⁻¹ and a kon [10] of 2.01e+06 M⁻¹ s⁻¹.

B6: #44 VH0VK0 chimeric human IgG1 (antibody, V domains shown)
VH: QSVEESGGRLVTPGTPLTLTCTVSGIDLSSYAMAWVRQAPGKGLEWIGCIDRRGGTFYASWVKGRFTISKTSTTVDLKMTSLTTEDTATYFCARDSGAFDPWGPGTLVTVSS
VL: QIVMTQTPSSVSAAVGGTVTIKCQASQSVYDNYLAWYQQKPGQPPKLLIHAASNLASRVPSRFKGSGSGTQFTLTISDVQCDDAATYYCLGEFSCTTTDCNVFGGGTEVVVK
notes: rabbit VH and VK on human IgG1; also called VH0Vκ0; Clone #44 hIgG1
For B6, the Kd [10] was 4.68 nM, the koff [10] was 0.00968 s⁻¹ and the kon [10] was 2.07e+06 M⁻¹ s⁻¹. For the same binder, the Kd [11] was 3.83 nM, the “Relative KD (to VH0VK0)” value [11] was 1 and the koff [11] was 0.0126 s⁻¹. For the same binder, the kon [11] was 3.28e+06 M⁻¹ s⁻¹, the Kd [12] was 3.25 nM and the “Relative KD (to VH0VK0)” value [12] was 1. It also gave a koff [12] of 0.0107 s⁻¹ and a kon [12] of 3.3e+06 M⁻¹ s⁻¹.

B7: Clone 2 (#44) rabbit monoclonal IgG (antibody, V domains shown)
VH: QSVEESGGRLVTPGTPLTLTCTVSGIDLSSYAMAWVRQAPGKGLEWIGCIDRRGGTFYASWVKGRFTISKTSTTVDLKMTSLTTEDTATYFCARDSGAFDPWGPGTLVTVSS
VL: QIVMTQTPSSVSAAVGGTVTIKCQASQSVYDNYLAWYQQKPGQPPKLLIHAASNLASRVPSRFKGSGSGTQFTLTISDVQCDDAATYYCLGEFSCTTTDCNVFGGGTEVVVKG
notes: rabbit IgG; also called clone #44; D6
B7 was tested, and the EC50 [9] was 1.05 nM.
